Assay results reported in PMC7005732.

Columns and labels:
[1] = target: Human non-translating 80S ribosome, puromycin-treated, purified from HeLa cells (human (endogenous in HeLa)) (UniProt P62750); test: cryo-EM structure; in vivo pulled-out Ebp1-ribosome complex (dataset 1; merged with dataset 2 for the final map): 100 nM 80S ribosomes purified from HeLa cells without addition of recombinant Ebp1; occupancy estimated from computational particle sorting
[2] = target: Human non-translating 80S ribosome, puromycin-treated, purified from HeLa cells (human (endogenous in HeLa)) (UniProt P62750); test: cryo-EM structure; in vitro reconstituted complex (dataset 2; merged with dataset 1 for the final map): 100 nM purified HeLa 80S ribosomes with an eightfold excess of recombinant Ebp1, SEC buffer (20 mM HEPES KOH pH 7.5, 5 mM Mg(OAc)2, 175 mM KOAc, 1 mM TCEP); occupancy estimated from computational particle sorting

Row | fraction of ribosomes decorated with Ebp1 [1] | fraction of ribosomes decorated with Ebp1 [2] | Substance
1 | 25% |  | Endogenous Ebp1 on 80S ribosomes purified from HeLa cells (from UniProt Q9UQ80 1-394) (natural protein)
2 |  | 75% | ErbB3 receptor-binding protein (Ebp1), full-length, p48 isoform, recombinant (from UniProt Q9UQ80 1-394) (natural protein)
